# Data as given in article PMC7652416, “Structural basis of ClpXP recognition and unfolding of ssrA-tagged substrates” (eLife, 2020).
# B1: E. coli ClpP (enzyme)
# chain: not shown
# notes: E. coli (strain K12) ClpP, UniProtKB P0A6G7; Double-ring tetradecamer of two heptameric rings; also called ClpP14; ClpP tetradecamer; source: recombinant (plasmid pT7 ClpP), purified as described (Kim et al., 2000; Bell et al., 2019); copies: 14
# Target: the molecule itself
# Assay: cryo-EM structure; single-chain ClpX^∆N (4 µM), ClpP (1.8 µM), ATPγS (2.5 mM) in 20 mM HEPES pH 7.5, 100 mM KCl, 25 mM MgCl2, 5 min at 25°C; equal volume of GFP-G3YG9SENYALAA (20 µM) and ATP (2.5 mM) added; vitrified within 15 s of final mixing
protein,measurement,value
B1,stoichiometry N,14
